Test results: patent US20230357362A1
Each block holds one substance with its values, some of them ahead of it.

What was measured:
[1] = molecular target: 40S ribosomal protein S15a OS = Homo sapiens (Homo sapiens) (UniProt P62244); experiment: co-IP with M53 from SW480 lysate, LC-MS
[2] = molecular target: 40S ribosomal protein S3 OS = Homo sapiens GN = RPS3 (Homo sapiens) (UniProt P23396); experiment: co-IP with M53 from SW480 lysate, LC-MS
[3] = molecular target: ADP/ATP translocase 3 OS = Homo sapiens GN = SLC25A6 (Homo sapiens) (UniProt P12236); experiment: co-IP with M53 from SW480 lysate, LC-MS
[4] = molecular target: ATP synthase subunit beta, mitochondrial OS = Homo (name cut off as printed) (Homo sapiens) (UniProt P06576); experiment: co-IP with M53 from SW480 lysate, LC-MS
[5] = molecular target: Cytoplasmic dynein 1 heavy chain 1 OS = Homo sapiens (Homo sapiens) (UniProt Q14204); experiment: co-IP with M53 from SW480 lysate, LC-MS
[6] = molecular target: DNA-dependent protein kinase catalytic subunit (UniProt P78527); experiment: co-IP with M53 from SW480 lysate, LC-MS
[7] = molecular target: Desmoplakin OS = Homo sapiens GN = DSP PE = 1 SV = 3 (Homo sapiens) (UniProt P15924); experiment: co-IP with M53 from SW480 lysate, LC-MS
[8] = molecular target: Heat shock cognate 71 kDa protein OS = Homo sapiens (Homo sapiens) (UniProt P11142); experiment: co-IP with M53 from SW480 lysate, LC-MS
[9] = molecular target: Heat shock protein HSP 90-alpha OS = Homo sapiens (Homo sapiens) (UniProt P07900); experiment: co-IP with M53 from SW480 lysate, LC-MS
[10] = molecular target: Heat shock protein beta-1 OS = Homo sapiens (Homo sapiens) (UniProt P04792); experiment: co-IP with M53 from SW480 lysate, LC-MS
[11] = molecular target: Histone H4 OS = Homo sapiens GN = HIST1H4A PE = 1 (Homo sapiens) (UniProt P62805); experiment: co-IP with M53 from SW480 lysate, LC-MS
[12] = molecular target: Isoform 2 of 40S ribosomal protein S20 OS = Homo (name cut off as printed) (Homo sapiens) (UniProt P60866); experiment: co-IP with M53 from SW480 lysate, LC-MS
[13] = molecular target: Isoform 2 of ATP synthase subunit alpha, mitochondrial (UniProt P25705); experiment: co-IP with M53 from SW480 lysate, LC-MS
[14] = molecular target: Isoform 2 of Annexin A2 OS = Homo sapiens GN = ANXA2 (Homo sapiens) (UniProt P07355); experiment: co-IP with M53 from SW480 lysate, LC-MS
[15] = molecular target: Isoform 2 of Glyceraldehyde-3-phosphate (name cut off as printed) (UniProt P04406); experiment: co-IP with M53 from SW480 lysate, LC-MS
[16] = molecular target: Isoform 2 of Plectin OS = Homo sapiens GN = PLEC (Homo sapiens) (UniProt Q15149); experiment: co-IP with M53 from SW480 lysate, LC-MS
[17] = molecular target: Junction plakoglobin OS = Homo sapiens GN = JUP PE = 1 (Homo sapiens) (UniProt P14923); experiment: co-IP with M53 from SW480 lysate, LC-MS
[18] = molecular target: Myosin-9 OS = Homo sapiens GN = MYH9 PE = 1 SV = 4 (Homo sapiens) (UniProt P35579); experiment: co-IP with M53 from SW480 lysate, LC-MS
[19] = molecular target: Tubulin beta chain OS = Homo sapiens GN = TUBB PE = 1 (Homo sapiens) (UniProt P07437); experiment: co-IP with M53 from SW480 lysate, LC-MS
[20] = molecular target: Tubulin beta-4B chain OS = Homo sapiens GN = TUBB4B (Homo sapiens) (UniProt P68371); experiment: co-IP with M53 from SW480 lysate, LC-MS
[21] = molecular target: 40S ribosomal protein S15a OS = Homo sapiens (Homo sapiens) (UniProt P62244); experiment: IP with isotype IgG control from SW480 lysate, LC-MS (negative control)
[22] = molecular target: 40S ribosomal protein S3 OS = Homo sapiens GN = RPS3 (Homo sapiens) (UniProt P23396); experiment: as above
[23] = molecular target: ADP/ATP translocase 3 OS = Homo sapiens GN = SLC25A6 (Homo sapiens) (UniProt P12236); experiment: as above
[24] = molecular target: ATP synthase subunit beta, mitochondrial OS = Homo (name cut off as printed) (Homo sapiens) (UniProt P06576); experiment: as above
[25] = molecular target: Cytoplasmic dynein 1 heavy chain 1 OS = Homo sapiens (Homo sapiens) (UniProt Q14204); experiment: as above
[26] = molecular target: DNA-dependent protein kinase catalytic subunit (UniProt P78527); experiment: as above
[27] = molecular target: Desmoplakin OS = Homo sapiens GN = DSP PE = 1 SV = 3 (Homo sapiens) (UniProt P15924); experiment: as above
[28] = molecular target: Heat shock cognate 71 kDa protein OS = Homo sapiens (Homo sapiens) (UniProt P11142); experiment: as above
[29] = molecular target: Heat shock protein HSP 90-alpha OS = Homo sapiens (Homo sapiens) (UniProt P07900); experiment: as above
[30] = molecular target: Heat shock protein beta-1 OS = Homo sapiens (Homo sapiens) (UniProt P04792); experiment: as above
[31] = molecular target: Histone H4 OS = Homo sapiens GN = HIST1H4A PE = 1 (Homo sapiens) (UniProt P62805); experiment: as above
[32] = molecular target: Isoform 2 of 40S ribosomal protein S20 OS = Homo (name cut off as printed) (Homo sapiens) (UniProt P60866); experiment: as above
[33] = molecular target: Isoform 2 of ATP synthase subunit alpha, mitochondrial (UniProt P25705); experiment: as above
[34] = molecular target: Isoform 2 of Annexin A2 OS = Homo sapiens GN = ANXA2 (Homo sapiens) (UniProt P07355); experiment: as above
[35] = molecular target: Isoform 2 of Glyceraldehyde-3-phosphate (name cut off as printed) (UniProt P04406); experiment: as above
[36] = molecular target: Isoform 2 of Plectin OS = Homo sapiens GN = PLEC (Homo sapiens) (UniProt Q15149); experiment: as above
[37] = molecular target: Junction plakoglobin OS = Homo sapiens GN = JUP PE = 1 (Homo sapiens) (UniProt P14923); experiment: as above
[38] = molecular target: Myosin-9 OS = Homo sapiens GN = MYH9 PE = 1 SV = 4 (Homo sapiens) (UniProt P35579); experiment: as above
[39] = molecular target: Tubulin beta chain OS = Homo sapiens GN = TUBB PE = 1 (Homo sapiens) (UniProt P07437); experiment: as above
[40] = molecular target: Tubulin beta-4B chain OS = Homo sapiens GN = TUBB4B (Homo sapiens) (UniProt P68371); experiment: as above
[41] = molecular target: endogenous fibronectin of human CRC cells (Isoform 10 of Fibronectin OS = Homo sapiens GN = FN1) (Homo sapiens) (UniProt P02751); experiment: as above

Sequence of dysadherin (FXYD5) as expressed in human CRC cells (endogenous in SW480 cells; overexpressed in HCT116 cells) (Q96DB9 22-178): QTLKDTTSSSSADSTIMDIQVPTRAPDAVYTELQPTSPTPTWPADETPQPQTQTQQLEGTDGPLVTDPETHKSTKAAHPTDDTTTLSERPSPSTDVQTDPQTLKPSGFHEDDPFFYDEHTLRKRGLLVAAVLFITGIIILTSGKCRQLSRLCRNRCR
Sequence of Junction plakoglobin OS = Homo sapiens GN = JUP PE = 1 (Homo sapiens) (P14923 whole entry): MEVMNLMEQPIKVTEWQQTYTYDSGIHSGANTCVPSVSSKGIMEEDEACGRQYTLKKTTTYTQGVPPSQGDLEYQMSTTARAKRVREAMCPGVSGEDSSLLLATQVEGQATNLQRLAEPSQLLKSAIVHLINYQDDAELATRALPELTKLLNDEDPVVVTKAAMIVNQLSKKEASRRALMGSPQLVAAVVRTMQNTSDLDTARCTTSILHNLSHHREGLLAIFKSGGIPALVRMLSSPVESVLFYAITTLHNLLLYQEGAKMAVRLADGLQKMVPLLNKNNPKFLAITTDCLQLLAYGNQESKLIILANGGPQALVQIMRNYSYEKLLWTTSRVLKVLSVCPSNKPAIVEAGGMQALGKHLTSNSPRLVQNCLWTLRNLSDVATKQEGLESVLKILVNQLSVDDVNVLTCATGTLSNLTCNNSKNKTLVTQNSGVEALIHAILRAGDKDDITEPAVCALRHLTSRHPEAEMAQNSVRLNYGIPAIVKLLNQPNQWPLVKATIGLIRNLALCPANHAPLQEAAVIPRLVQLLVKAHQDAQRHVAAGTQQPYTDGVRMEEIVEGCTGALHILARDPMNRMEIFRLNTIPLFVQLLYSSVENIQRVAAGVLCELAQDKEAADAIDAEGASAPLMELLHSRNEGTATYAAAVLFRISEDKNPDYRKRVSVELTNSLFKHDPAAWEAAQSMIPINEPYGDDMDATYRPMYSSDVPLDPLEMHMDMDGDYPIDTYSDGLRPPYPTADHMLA
Sequence of Tubulin beta chain OS = Homo sapiens GN = TUBB PE = 1 (Homo sapiens) (P07437 whole entry): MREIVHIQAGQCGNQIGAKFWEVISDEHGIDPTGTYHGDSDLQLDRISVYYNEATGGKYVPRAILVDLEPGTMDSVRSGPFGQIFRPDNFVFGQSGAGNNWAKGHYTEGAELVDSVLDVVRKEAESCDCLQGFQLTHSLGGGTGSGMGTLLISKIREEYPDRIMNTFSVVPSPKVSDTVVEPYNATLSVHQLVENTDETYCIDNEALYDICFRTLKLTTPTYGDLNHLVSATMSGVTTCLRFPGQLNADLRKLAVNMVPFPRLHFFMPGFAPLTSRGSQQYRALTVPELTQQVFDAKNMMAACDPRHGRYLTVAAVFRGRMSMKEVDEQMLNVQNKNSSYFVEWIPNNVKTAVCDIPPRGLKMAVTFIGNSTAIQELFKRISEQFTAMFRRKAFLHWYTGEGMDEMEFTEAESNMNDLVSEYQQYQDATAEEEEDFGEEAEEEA
Sequence of Tubulin beta-4B chain OS = Homo sapiens GN = TUBB4B (Homo sapiens) (P68371 whole entry, canonical isoform): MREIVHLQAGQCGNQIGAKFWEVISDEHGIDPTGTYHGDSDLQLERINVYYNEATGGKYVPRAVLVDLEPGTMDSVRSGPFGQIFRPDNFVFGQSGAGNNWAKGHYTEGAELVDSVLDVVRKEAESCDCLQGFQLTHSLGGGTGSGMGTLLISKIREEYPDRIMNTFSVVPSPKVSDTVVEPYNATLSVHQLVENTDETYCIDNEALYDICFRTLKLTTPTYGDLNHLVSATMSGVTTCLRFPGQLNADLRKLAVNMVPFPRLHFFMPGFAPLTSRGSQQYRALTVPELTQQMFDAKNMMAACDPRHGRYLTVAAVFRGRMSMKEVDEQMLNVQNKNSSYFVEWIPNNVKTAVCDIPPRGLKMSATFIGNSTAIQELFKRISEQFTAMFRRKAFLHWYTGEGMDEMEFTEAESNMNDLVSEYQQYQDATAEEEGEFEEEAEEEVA
Sequence of Heat shock protein beta-1 OS = Homo sapiens (Homo sapiens) (P04792 whole entry): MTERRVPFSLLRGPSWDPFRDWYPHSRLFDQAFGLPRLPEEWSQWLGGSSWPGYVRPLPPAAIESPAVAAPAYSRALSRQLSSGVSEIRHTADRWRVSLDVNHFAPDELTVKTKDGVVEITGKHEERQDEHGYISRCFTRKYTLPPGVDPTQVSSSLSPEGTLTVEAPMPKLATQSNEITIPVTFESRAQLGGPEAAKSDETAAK
Sequence of Desmoplakin OS = Homo sapiens GN = DSP PE = 1 SV = 3 (Homo sapiens) (P15924 whole entry): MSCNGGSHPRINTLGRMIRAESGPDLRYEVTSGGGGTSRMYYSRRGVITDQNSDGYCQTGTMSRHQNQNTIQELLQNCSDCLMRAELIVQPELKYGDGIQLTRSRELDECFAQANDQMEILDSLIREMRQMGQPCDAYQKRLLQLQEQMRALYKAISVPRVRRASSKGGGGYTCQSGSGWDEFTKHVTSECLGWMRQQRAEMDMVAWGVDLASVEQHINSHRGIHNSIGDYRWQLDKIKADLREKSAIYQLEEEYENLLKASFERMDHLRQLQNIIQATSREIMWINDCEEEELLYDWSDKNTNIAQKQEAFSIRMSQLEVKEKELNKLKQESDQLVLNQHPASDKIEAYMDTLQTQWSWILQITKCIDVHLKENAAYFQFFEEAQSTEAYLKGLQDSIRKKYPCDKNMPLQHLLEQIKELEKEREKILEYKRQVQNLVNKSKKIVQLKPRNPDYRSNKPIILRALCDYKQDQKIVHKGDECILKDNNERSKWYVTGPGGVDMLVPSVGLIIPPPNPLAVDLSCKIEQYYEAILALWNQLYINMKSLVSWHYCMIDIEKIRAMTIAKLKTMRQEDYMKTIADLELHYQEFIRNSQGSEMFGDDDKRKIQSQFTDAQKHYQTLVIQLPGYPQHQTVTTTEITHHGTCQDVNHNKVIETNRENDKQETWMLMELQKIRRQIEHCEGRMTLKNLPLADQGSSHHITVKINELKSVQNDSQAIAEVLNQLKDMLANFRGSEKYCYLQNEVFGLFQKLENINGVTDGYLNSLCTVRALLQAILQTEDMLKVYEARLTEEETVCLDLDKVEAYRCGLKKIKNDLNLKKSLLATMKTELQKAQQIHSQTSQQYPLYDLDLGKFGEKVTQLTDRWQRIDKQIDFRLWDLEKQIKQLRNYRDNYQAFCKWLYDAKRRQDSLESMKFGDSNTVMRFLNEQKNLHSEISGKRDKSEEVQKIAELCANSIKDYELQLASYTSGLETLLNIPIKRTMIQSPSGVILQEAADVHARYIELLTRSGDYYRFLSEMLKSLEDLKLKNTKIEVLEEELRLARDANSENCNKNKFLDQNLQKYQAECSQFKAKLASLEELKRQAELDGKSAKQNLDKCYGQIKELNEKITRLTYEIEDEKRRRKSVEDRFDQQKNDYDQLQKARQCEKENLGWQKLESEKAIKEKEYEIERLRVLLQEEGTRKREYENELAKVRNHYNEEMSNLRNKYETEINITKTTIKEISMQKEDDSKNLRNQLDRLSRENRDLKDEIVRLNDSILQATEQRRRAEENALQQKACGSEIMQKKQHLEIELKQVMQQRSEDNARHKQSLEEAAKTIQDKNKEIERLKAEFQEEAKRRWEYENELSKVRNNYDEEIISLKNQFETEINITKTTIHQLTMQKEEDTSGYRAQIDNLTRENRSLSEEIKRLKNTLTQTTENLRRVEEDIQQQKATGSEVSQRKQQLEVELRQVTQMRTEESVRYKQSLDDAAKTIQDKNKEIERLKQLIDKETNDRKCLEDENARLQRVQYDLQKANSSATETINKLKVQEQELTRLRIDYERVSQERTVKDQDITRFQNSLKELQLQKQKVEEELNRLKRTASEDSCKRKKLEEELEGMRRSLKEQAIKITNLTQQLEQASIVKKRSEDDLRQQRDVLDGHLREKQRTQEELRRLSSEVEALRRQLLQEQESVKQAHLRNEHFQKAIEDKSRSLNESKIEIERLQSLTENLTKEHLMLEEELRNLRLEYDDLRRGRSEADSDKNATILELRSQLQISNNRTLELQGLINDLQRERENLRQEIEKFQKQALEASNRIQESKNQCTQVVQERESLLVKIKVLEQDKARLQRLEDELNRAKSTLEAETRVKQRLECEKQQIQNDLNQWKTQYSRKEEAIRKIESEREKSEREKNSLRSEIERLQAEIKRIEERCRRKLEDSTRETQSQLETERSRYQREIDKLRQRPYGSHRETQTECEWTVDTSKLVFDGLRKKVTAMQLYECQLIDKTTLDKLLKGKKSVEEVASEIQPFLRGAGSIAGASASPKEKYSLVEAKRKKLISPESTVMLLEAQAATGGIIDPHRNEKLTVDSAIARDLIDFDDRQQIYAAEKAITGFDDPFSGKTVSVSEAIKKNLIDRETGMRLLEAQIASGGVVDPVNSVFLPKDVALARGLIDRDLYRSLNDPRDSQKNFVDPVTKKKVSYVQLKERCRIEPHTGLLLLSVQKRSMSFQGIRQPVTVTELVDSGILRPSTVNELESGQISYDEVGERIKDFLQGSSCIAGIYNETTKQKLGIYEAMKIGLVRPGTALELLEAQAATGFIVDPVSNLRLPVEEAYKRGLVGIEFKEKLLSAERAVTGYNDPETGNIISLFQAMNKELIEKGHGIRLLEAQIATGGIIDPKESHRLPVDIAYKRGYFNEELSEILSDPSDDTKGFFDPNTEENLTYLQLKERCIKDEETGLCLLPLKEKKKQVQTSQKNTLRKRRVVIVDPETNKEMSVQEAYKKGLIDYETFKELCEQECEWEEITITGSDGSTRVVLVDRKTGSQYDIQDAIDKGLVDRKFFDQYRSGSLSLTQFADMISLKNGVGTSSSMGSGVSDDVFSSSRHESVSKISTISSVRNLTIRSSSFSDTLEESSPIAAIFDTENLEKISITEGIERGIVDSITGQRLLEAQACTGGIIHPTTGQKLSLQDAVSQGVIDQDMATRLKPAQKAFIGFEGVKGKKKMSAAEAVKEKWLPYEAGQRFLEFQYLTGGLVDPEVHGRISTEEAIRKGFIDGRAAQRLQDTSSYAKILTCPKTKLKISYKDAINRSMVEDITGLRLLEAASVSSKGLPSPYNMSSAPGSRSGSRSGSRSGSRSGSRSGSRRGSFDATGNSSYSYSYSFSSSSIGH

Probe identification probability [1]: 100%
Probe identification probability [2]: 100%
Probe identification probability [3]: 100%
Probe identification probability [4]: 100%
Probe identification probability [5]: 100%
Probe identification probability [6]: 100%
Probe identification probability [7]: 100%
Probe identification probability [8]: 100%
Probe identification probability [9]: 100%
Probe identification probability [10]: 100%
Probe identification probability [11]: 100%
Probe identification probability [12]: 100%
Probe identification probability [13]: 100%
Probe identification probability [14]: 100%
Probe identification probability [15]: 100%
Probe identification probability [16]: 100%
Probe identification probability [17]: 100%
Probe identification probability [18]: 100%
Probe identification probability [19]: 100%
Probe identification probability [20]: 100%
Substance: dysadherin (FXYD5) as expressed in human CRC cells (endogenous in SW480 cells; overexpressed in HCT116 cells) (from UniProt Q96DB9 22-178)

Probe identification probability [21]: 75%
Probe identification probability [22]: 100%
Probe identification probability [23]: 100%
Probe identification probability [24]: 100%
Probe identification probability [25]: 10%
Probe identification probability [26]: 72%
Probe identification probability [27]: 91%
Probe identification probability [28]: 100%
Probe identification probability [29]: 100%
Probe identification probability [30]: 100%
Probe identification probability [31]: 100%
Probe identification probability [32]: 100%
Probe identification probability [33]: 100%
Probe identification probability [34]: 100%
Probe identification probability [35]: 99%
Probe identification probability [36]: 15%
Probe identification probability [37]: 98%
Probe identification probability [38]: 13%
Probe identification probability [39]: 100%
Probe identification probability [40]: 100%
Probe identification probability [41]: 6%
Substance: isotype IgG control antibody
